Data reported in publication PMC3820547, “An Extended Network of Genomic Maintenance in the Archaeon Pyrococcus abyssi Highlights Unexpected Associations between Eucaryotic Homologs” (PLoS ONE, 2013).

Target: T1, Mre11/Rad50 complex (Q9UZC9, Q9UZC8), HIS fusion (Pyrococcus abyssi, UniProt Q9UZC9 1-415; Q9UZC8 1-880)
T1 construct: Mre11 of Pyrococcus abyssi, full length, in the FL complex; Rad50 of Pyrococcus abyssi, full length, in the FL complex; also called Mre11 complex; source: E. coli Rosetta, purified on magnetic beads (details in Materials S1); not shown: His tag, N-terminal, kept
T1 sequence (Q9UZC9 whole entry, chain 1 of 2, the tested form may be a part): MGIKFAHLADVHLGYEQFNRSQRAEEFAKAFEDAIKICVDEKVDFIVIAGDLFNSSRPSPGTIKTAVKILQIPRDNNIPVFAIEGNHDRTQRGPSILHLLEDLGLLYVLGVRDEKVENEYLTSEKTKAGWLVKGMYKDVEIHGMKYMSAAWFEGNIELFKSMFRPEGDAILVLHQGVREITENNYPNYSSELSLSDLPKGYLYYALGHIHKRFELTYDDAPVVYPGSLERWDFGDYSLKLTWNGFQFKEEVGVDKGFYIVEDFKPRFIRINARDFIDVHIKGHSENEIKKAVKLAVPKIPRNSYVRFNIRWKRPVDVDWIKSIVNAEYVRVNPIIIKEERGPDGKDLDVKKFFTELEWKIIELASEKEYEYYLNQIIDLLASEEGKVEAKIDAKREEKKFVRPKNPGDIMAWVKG
T1 sequence (Q9UZC8 whole entry, chain 2 of 2, the tested form may be a part): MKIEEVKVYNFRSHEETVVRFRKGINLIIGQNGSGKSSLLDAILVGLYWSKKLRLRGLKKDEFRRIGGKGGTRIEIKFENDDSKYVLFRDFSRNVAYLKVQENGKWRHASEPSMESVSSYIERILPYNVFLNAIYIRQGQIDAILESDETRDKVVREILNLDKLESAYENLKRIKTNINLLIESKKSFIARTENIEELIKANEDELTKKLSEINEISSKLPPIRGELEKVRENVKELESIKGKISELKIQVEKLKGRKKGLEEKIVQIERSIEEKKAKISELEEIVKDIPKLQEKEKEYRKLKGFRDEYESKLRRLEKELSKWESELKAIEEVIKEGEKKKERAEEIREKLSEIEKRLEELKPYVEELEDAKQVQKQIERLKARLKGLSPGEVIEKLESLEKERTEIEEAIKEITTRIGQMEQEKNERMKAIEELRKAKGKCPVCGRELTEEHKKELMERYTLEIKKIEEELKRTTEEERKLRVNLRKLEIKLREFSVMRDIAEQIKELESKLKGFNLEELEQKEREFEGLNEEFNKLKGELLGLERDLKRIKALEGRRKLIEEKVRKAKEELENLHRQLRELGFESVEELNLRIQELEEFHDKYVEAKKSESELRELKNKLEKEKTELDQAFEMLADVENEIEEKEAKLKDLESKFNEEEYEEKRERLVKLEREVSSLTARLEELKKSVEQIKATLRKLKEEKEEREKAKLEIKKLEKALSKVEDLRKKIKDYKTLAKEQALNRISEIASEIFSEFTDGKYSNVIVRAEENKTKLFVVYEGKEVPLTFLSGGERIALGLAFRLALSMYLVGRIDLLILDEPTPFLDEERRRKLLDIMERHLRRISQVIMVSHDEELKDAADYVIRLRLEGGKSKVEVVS
Assay: pull-down; 10 ug HIS fusion Mre11/Rad50 immobilised on Co2+ magnetic beads, with or without DNase I treatment, incubated with 0.5 ug PCNA 1 h at room temperature in TrisHCl 20 mM pH 8, NaCl 150 mM, DTT 1 mM with BSA; Western blot with anti-PCNA and anti-HisTag
Conditions: both partners purified

B1: purified PCNA (prey of the Mre11/Rad50 pull-down) (natural protein, Pyrococcus abyssi, UniProt Q9UYX8 1-249, looked up)
chain: MPFEIVFEGAKEFAQLIETASRLIDEAAFKVTEEGISMRAMDPSRVVLIDLNLPASIFSKYEVDGEETIGVNMDHLKKVLKRGKAKETLILRKGEENFLEISLQGTATRTFKLPLIDVEEIEVDLPELPFTAKVVILGDVIKEAVKDASLVSDSMKFIAKENEFTMRAEGETQEVEVKLTLEDEGLLDIEVQEETKSAYGISYLSDMVKGLGKADEVTIKFGNEMPMQMEYYIRDEGRLIFLLAPRVEE
notes: it was the prey on Co2+ beads and was detected with anti-PCNA, so it is kept apart from m1; source: purified
binding result: binds
